Columns and labels:
[1] = molecular target: Recombinant water soluble mouse PLVAP (extracellular domain, residues 48-438) (mouse) (UniProt Q91VC4); assay: competitive ELISA on plate-coated mouse PLVAP; competitor biotinylated MECA32 mAb
[2] = molecular target: Recombinant water soluble mouse PLVAP (extracellular domain, residues 48-438) (mouse) (UniProt Q91VC4); assay: told in the legend of the competitive ELISA; method of the comparison not stated
[3] = molecular target: Recombinant water soluble mouse PLVAP (extracellular domain, residues 48-438) (mouse) (UniProt Q91VC4); assay: Scatchard analysis; plate-coated recombinant mouse PLVAP, bound Fab-TF measured by chromogenic TF activity; mean ± SD of 6 batches
[4] = molecular target: T1, Recombinant water soluble mouse PLVAP (extracellular domain, residues 48-438) (mouse, UniProt Q91VC4 48-438); assay: ELISA on plate-coated mouse PLVAP, detected with biotinylated anti-hTF antibody
T1 construct: The cDNA clone (Invitrogen) is not tied to NP_115774.2 in words; His-tag not reported as removed; also called mPLVAP; His-mPLVAP; not shown: His-tag of the pET-15b vector
T1 sequence: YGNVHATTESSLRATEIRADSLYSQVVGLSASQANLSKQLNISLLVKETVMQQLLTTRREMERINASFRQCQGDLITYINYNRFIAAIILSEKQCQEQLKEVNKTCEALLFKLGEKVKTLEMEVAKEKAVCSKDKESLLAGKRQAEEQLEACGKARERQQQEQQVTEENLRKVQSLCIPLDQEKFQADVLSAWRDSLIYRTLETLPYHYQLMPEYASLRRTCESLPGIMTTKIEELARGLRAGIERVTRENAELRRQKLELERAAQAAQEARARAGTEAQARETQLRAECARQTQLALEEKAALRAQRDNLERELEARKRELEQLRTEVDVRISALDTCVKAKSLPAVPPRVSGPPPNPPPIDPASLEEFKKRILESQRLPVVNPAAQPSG

[5] = molecular target: T2, Recombinant water soluble human PLVAP (extracellular domain, residues 51-442) (human) (UniProt Q9BX97); assay: Scatchard analysis; plate-coated recombinant human PLVAP, bound Fab-TF measured by chromogenic TF activity; mean ± SD of 3 batches
T2 sequence: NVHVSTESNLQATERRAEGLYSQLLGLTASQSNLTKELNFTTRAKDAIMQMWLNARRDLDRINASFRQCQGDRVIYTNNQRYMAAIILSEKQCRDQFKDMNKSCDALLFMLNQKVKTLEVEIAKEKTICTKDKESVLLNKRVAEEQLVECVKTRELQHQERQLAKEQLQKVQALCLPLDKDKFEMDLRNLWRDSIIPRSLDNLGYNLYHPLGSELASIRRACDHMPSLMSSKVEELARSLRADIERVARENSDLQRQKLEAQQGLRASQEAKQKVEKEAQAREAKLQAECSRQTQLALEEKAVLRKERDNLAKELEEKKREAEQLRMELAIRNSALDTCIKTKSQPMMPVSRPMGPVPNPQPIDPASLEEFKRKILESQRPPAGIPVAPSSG

Molecule “Rat anti-mouse PLVAP MECA32 monoclonal antibody” has a potency in competition against MECA32-Fab-TF [1] of 1 log.

“Fab fragment of MECA32 anti-mouse PLVAP monoclonal antibody co-expressing human tissue factor” was tested, and the binding affinity against MECA32 mAb [2] was 1 log lower and the Kd [3] was 57.2 nM.

B1: Soluble human tissue factor without antibody (other)
chain: SGTTNTVAAYNLTWKSTNFKTILEWEPKPVNQVYTVQISTKSGDWKSKCFYTTDTECDLTDEIVKDVKQTYLARVFSYPAGNVESTGSAGEPLYENSPEFTPYLETNLGQPTIQSFEQVGTKVNVTVEDERTLVRRNNTFLSLRDVFGKDLIYTLYYWKSSSSGKKTAKTNTNEFLIDVDKGENYCFSVQAVIPSRTVNRKSTDSPVECMGQEKGEFRE
notes: also called hTF; control soluble hTF
B1: no binding [4].

B2: Recombinant Fab fragment of CSRO2 anti-human PLVAP monoclonal antibody co-expressing water-soluble human tissue factor (Fab, part only; not given: Humanized CSRO2 kappa light chain, part only)
heavy: MQVQLVQSGSELKKPGASVKVSCKASGYTFTSNYINWVRQAPGQGLEWMGNIYPSDGFTNYNQKFKDRVTITVDKSTSTAYMELSSLRSEDTAVYYCTRNFDVWGQGTTVTVSSASTKGPSVFPLAPCSRSTSESTAALGCLVKDYFPEPVTVSWNSGALTSGVHTFPAVLQSSGLYSLSSVVTVPSSSLGTKTYTCNVDHKPSNTKVDKRVESKYGPPCPSCPGGGGSGGGGSGGGGSSGTTNTVAAYNLTWKSTNFKTILEWEPKPVNQVYTVQISTKSGDWKSKCFYTTDTECDLTDEIVKDVKQTYLARVFSYPAGNVESTGSAGEPLYENSPEFTPYLETNLGQPTIQSFEQVGTKVNVTVEDERTLVRRNNTFLSLRDVFGKDLIYTLYYWKSSSSGKKTAKTNTNEFLIDVDKGENYCFSVQAVIPSRTVNRKSTDSPVECMGQEKGEFRE
In the case of B2, the Kd [5] is reported as 30.7 nM.

— patent US20250145689A1 (CIRCULAR COMMITMENT, published 2025)
